Reference: PMC11638004, “Phosphorylation of auxin signaling repressor IAA8 by heat-responsive MPKs causes defective flower development” (Plant Physiology, 2024)

Experiments:
Assay in all cases: pull-down; 2 μg GST-IAA8 or GST on glutathione-Sepharose-4B beads, 5 μg His-MPK added, overnight at 4°C; 50 mM Tris-HCl pH 7.5, 200 mM NaCl, 0.1 mM EDTA, 0.5 mM DTT, 1% Triton X-100; four washes; immunoblot with anti-His
Conditions in all cases: both partners purified
His-MPK4 = target: T1, His-MPK4 (Arabidopsis thaliana, UniProt Q39024 1-376)
T1 construct: The N-terminal position of the His tag is read from the name His-MPK4 and the vector pQE30; also called His-fused MPK4; source: E. coli M15, purified (Ni-NTA agarose); not shown: His, N-terminal, kept
T1 sequence (looked up): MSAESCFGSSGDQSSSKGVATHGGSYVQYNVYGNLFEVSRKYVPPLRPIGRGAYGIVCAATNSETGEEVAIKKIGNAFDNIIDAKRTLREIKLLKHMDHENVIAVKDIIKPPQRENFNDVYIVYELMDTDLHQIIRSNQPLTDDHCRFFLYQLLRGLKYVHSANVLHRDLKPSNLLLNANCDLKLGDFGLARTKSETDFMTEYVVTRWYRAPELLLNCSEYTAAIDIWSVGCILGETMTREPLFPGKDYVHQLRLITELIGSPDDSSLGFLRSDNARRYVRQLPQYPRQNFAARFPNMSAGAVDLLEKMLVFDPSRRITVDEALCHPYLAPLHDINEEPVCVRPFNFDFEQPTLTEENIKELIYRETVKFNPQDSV

His-MPK6 = target: T2, His-MPK6 (Arabidopsis thaliana, UniProt Q39026 1-395)
T2 construct: The N-terminal position of the His tag is read from the name His-MPK6 and the vector pQE30; also called His-fused MPK6; source: E. coli M15, purified (Ni-NTA agarose); not shown: His, N-terminal, kept

His-MPK3 = target: T3, His-MPK3 (Arabidopsis thaliana, UniProt Q39023 1-370)
T3 construct: The N-terminal position of the His tag is read from the name His-MPK3 and the vector pQE30; also called His-fused MPK3; source: E. coli M15, purified (Ni-NTA agarose); not shown: His, N-terminal, kept
T3 sequence (looked up): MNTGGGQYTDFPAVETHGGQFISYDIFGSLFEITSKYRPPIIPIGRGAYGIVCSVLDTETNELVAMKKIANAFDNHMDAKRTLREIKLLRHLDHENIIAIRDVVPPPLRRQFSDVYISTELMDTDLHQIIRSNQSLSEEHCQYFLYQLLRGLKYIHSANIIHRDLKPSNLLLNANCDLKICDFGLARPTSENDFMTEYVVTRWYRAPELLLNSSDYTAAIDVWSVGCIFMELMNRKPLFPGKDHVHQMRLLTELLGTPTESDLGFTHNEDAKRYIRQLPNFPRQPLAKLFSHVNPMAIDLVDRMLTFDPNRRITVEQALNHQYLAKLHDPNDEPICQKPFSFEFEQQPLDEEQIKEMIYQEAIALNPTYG

T2 sequence (Q39026 whole entry, the tested form may be a part): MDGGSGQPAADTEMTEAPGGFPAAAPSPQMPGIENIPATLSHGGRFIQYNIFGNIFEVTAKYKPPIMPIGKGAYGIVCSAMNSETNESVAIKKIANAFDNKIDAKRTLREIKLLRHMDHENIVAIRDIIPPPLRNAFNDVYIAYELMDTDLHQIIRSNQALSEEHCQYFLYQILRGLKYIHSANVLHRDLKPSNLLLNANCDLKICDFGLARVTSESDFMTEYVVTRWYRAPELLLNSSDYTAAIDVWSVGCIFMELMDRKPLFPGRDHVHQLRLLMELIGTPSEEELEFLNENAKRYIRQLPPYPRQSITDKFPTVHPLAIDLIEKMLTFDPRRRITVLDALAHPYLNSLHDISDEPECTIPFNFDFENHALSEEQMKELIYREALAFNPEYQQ

binding result (His-MPK4): binds | binding result (His-MPK6): binds | binding result (His-MPK3): binds
B1: GST-IAA8 (natural protein, Arabidopsis thaliana, UniProt Q38826 1-321, looked up)
chain: MSYRLLSVDKDELVTSPCLKERNYLGLSDCSSVDSSTIPNVVGKSNLNFKATELRLGLPESQSPERETDFGLLSPRTPDEKLLFPLLPSKDNGSATTGHKNVVSGNKRGFADTWDEFSGVKGSVRPGGGINMMLSPKVKDVSKSIQEERSHAKGGLNNAPAAKAQVVGWPPIRSYRKNTMASSTSKNTDEVDGKPGLGVLFVKVSMDGAPYLRKVDLRTYTSYQQLSSALEKMFSCFTLGQCGLHGAQGRERMSEIKLKDLLHGSEFVLTYEDKDGDWMLVGDVPWEIFTETCQKLKIMKGSDSIGLAPGAVEKSKNKERV
notes: IAA8 (Indole-3-Acetic Acid 8), Arabidopsis thaliana, At2g22670, full length, amplified from an Arabidopsis cDNA library and cloned into pGEX-4T-1; The N-terminal position of GST is read from the name GST-IAA8 and the vector pGEX-4T-1; also called GST-IAA8^WT; GST-fused IAA8; source: E. coli BL21 (DE3), purified (glutathione Sepharose-4B); not shown: GST, N-terminal, kept
